The record followed here is patent US20100105877A1.

In the assay the target is GLP-1 receptor on RIN-m5F rat insulinoma cells (Rat) (UniProt P32301). In words: cell-based or functional assay.

Substance Ser12 DA exendin-4(Lys27)-PEG-Fc showed an In vitro titer (%): cAMP EC50 in RIN-m5F cells, relative to exendin-4 of 2.6%.
For the substance DA GLP-1(Lys20, 28)-PEG-Fc, the In vitro titer (%): cAMP EC50 in RIN-m5F cells, relative to exendin-4 is 2%.
